The term Kd denotes a measure of binding affinity in units of concentration. Read a high Kd as weaker binding.

The values below come from paper PMC4052849 (2014).

For the test, the target named is T1, DS-SILY20 (decorin mimic, SILY peptide-dermatan sulfate conjugate) (about 20 SILY peptides conjugated via BMPH to dermatan sulfate).
T1 chain: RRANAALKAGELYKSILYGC
The test can be described thus: solid-phase binding assay.

B1: IFN-γ (protein)
chain: QDPYVKEAENLKKYFNAGHSDVADNGTLFLGILKNWKEESDRKIMQSQIVSFYFKLFKNFKDDQSIQKSVETIKEDMNVKFFNSNKKKRDDFEKLTNYSVTDLNVQRKAIHELIQVMAELSPAAKTGKRKRSQMLFRG
With B1, binding was put at a Kd of 55.1 nM.
